# “And” between values parts separate entries of the source, which are not always exact repeats. Equal entries are not always repeated.
# How the values were obtained:
# [1] = test system: bone marrow progenitor cells; assay: Colony forming cell assay (CFC assay) of bone marrow after lethal irradiation; format: in vivo, mice
# Procedure: To determine the bone marrow cell subsets that are protected by IL-12 administration for the rescue phenomena, CFC and CFU-S12 assay were performed at different time post lethal dose radiation. Bone marrow cells were recovered from IL-12 treated or control animals immediately (day 0), or at day 7, 9, 10, 12, 14 and 21 post radiation for CFC and CFU-S12 assay. If progenitor cells are protected from IL-12 treatment (IL-12 was administered in this study at 24 hours before radiation), CFC and CFU-S12 colonies should be detected when cells were removed at day 0. However, bone marrow cells isolated at day 0, 7 post radiation give rise no CFC nor CFU-S12 colonies in both IL-12 treated and control animals. At day 10 post radiation, the bone marrow cells isolated from IL-12 treated mice start to give rise of CFU-S12 but no detectable CFC, which start to appear from IL-112 treated bone marrow isolated 12 days post radiation and fully recovered from bone marrow cells isolated 14 days post radiation, as shown in FIGS. 5A and 5B. […] The CFU-S12 colony forming cells and CFC cells at day 10 and day 14 post radiation may be derived from long-term repopulating stem cells rescued by IL-12 treatment.
# FIG. 5A: Isolated bone marrow cells were plated in methycellulose plates for 12 days to detect colony formation. Bone marrow cells from normal mice were used as control for the assay system. […] In contract, there is no recovery of CFC cell activity from control mice bone marrow cells.
# 24 hours before lethal irradiation, mice were i.v. treated with IL-12 (100 ng/mouse) and bone marrow cells were isolated from these mice at different days after lethal irradiation. For CFU assay, 2×10^5 bone marrow cells were thoroughly mixed into 1 ml methylcellulose medium MethCult GF M3434 from StemCell Technologies Inc (Vancouver, BC) and cultured into 35 mm dishes. Each sample was duplicated. After 12 days culture, colonies (>50 cells) were counted under microscope.
# Sca-1+ cells = assay: Annexin V / Sca-1 detection after lethal dose radiation (apoptosis); format: in vivo, mice; settings: IL-12 24 hours before 10 Gy, 7 hours post radiation
# Procedure: IL-12 administration protects Annexin V^−/Sca-1^+ cells (H4) from radiation induced apoptosis, where the Sca-1^+ positive cells are indicative of the presence of hematopoietic repopulating cell or hematopoietic stem cells and Annexin V negative cells are indicative of the functional bone marrow cells.
# A study was conducted to assess whether IL-12 administration protects Sca-1+ cells from radiation induced apoptosis. The Sca-1+ is a marker for hematopoietic repopulating cell or stem/progenitor cells. 24 hours post IL-12 administration, mice received lethal dose radiation (10 Gy). 7 hours post radiation, mice were sacrificed and bone marrow cells were isolated to detect Annexin V (an indication of cell apoptosis) and Sca-1 antigen (stem cell marker).
molecule,measurement,setting,value
"IL-12: Recombinant murine interleukin 12, heterodimeric cytokine (p35+p40), purchased from R&D Systems or PeproTech (protein, UniProt P43431 23-215; P43432 23-335, looked up) Interleukin-12 subunit alpha: RVIPVSGPARCLSQSRNLLKTTDDMVKTAREKLKHYSCTAEDIDHEDITRDQTSTLKTCLPLELHKNESCLATRETSSTTRGSCLPPQKTSLMMTLCLGSIYEDLKMYQTEFQAINAALQNHNHQQIILDKGMLVAIDELMQSLNHNGETLRQKPPVGEADPYRVKMKLCILLHAFSTRVVTINRVMGYLSSA Interleukin-12 subunit beta: MWELEKDVYVVEVDWTPDAPGETVNLTCDTPEEDDITWTSDQRHGVIGSGKTLTITVKEFLDAGQYTCHKGGETLSHSHLLLHKKENGIWSTEILKNFKNKTFLKCEAPNYSGRFTCSWLVQRNMDLKFNIKSSSSSPDSRAVTCGMASLSAEKVTLDQRDYEKYSVSCQEDVTCPTAEETLPIELALEARQQNKYENYSTSFFIRDIIKPDPPKNLQMKPLKNSQVEVSWEYPDSWSTPHSYFSLKFFVRIQRKKEKMKETEEGCNQKGAFLVEKTSTEVQCKGGNVCVQAQDRYYNSSCSKWACVPCRVRS",CFC activity,[1]; day 12 post lethal radiation,low level CFC cell activity
same,CFC activity,"[1]; first 9 days post lethal radiation, IL-12 24 hours before radiation",no detectable CFC activity
same,time of full recovery of CFC activity,"[1]; lethal radiation, IL-12 24 hours before radiation",about 14 days post radiation
same,AnnexinV-/Sca-1+ cells in whole bone marrow,"Sca-1+ cells; control 9.7±1.5%, p<0.01",19.2±3.7% and 19.2±2.3%
same,proportion of AnnexinV-/Sca-1+ cells in total Sca-1+ cells,"Sca-1+ cells; control 44±5%, p<0.05",54±5%

# From patent US10029000B2, “Uses of IL-12 in hematopoiesis” (University of Southern California, priority 2003, dated 2018)
